Proteolytic activity data for 2 proteins are collected here from patent publication US6410296.

The data set has as its target CMV Colburn assembly protein precursor (product of APNG.5).

B1: LM7, subclone of APNG1 expressing amino acids 1-280 (protein)
chain: MADPVYVGGFLVRYDEPPGEAELFLPSGVVDRWLRDCRGPLPLNVNHDESATVGYVAGLQNVRAGLFCLGRVTSPKFLDIVQKASEKSELVSRGPPSESSLRPDGVLEFLSGSYSGLSLSSRRDINAADGAAGDAETACFKHVALCSVGRRRGTLAVYGRQPDWVMERFPDLTEADREALRNQLSGSGEVAAKESAESSAAAAVDPFQSDSYGLLGNSVDALYIQERLPKLRYDKRLVGVTARESYVKASVSPAEQETCDIKVEKERPKEPEQSHVPTES
For B1, the proteolytic activity entry is listed as “Both are proteolytically active using assembly protein precursor as a substrate”.

B2: LM8, subclone of APNG1 expressing amino acids 1-249 (protein)
chain: MADPVYVGGFLVRYDEPPGEAELFLPSGVVDRWLRDCRGPLPLNVNHDESATVGYVAGLQNVRAGLFCLGRVTSPKFLDIVQKASEKSELVSRGPPSESSLRPDGVLEFLSGSYSGLSLSSRRDINAADGAAGDAETACFKHVALCSVGRRRGTLAVYGRQPDWVMERFPDLTEADREALRNQLSGSGEVAAKESAESSAAAAVDPFQSDSYGLLGNSVDALYIQERLPKLRYDKRLVGVTARESYVKA
In the case of B2, the proteolytic activity result is on record as “Both are proteolytically active using assembly protein precursor as a substrate”.
